Patent publication US20030068788A1
Blank lines part the entries; values can stand above or below the binder they belong to.

Legend:
[1] = biological target: T1, ferredoxin encoded by fd233 from strain I-1529 (Streptomyces tubercidicus strain I-1529); assay: cell-based or functional assay
T1 sequence: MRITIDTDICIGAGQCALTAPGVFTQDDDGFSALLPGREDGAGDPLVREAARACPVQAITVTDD

[2] = biological target: T2, ferredoxin encoded by fd233 from strain I-1529
T2 chain: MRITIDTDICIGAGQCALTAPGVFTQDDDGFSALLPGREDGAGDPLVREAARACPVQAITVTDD

[3] = biological target: T3, P450Ema1 monooxygenase from Streptomyces tubercidicus strain R-922 (Streptomyces tubercidicus strain R-922); assay: cell-based or functional assay
T3 sequence: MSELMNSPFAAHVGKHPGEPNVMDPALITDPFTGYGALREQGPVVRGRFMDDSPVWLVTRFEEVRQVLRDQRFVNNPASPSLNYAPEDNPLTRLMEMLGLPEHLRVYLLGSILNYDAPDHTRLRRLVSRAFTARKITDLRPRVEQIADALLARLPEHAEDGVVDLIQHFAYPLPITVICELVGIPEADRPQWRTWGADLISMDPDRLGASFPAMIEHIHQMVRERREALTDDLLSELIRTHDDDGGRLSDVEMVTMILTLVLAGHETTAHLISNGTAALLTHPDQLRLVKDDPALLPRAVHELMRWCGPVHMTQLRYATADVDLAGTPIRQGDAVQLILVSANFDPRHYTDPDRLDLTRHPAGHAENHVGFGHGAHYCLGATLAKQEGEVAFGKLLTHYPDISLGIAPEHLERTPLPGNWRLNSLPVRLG

[4] = biological target: T4, P450Ema1A, N-terminally truncated P450Ema1 encoded by ema1A (Streptomyces tubercidicus strain R-922); assay: cell-based or functional assay
T4 sequence: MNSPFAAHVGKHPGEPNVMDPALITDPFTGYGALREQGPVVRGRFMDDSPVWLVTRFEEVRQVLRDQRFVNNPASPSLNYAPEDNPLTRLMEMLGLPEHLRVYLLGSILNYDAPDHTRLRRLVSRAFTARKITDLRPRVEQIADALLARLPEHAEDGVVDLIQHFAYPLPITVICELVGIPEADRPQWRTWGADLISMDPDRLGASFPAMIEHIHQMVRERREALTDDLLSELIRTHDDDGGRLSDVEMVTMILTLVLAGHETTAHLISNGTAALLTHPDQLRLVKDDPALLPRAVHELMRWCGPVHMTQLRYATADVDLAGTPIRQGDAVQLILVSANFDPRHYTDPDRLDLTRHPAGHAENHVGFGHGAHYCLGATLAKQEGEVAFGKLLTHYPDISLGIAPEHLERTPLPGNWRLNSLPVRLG

[5] = biological target: T5, P450Ema2 monooxygenase from Streptomyces tubercidicus strain I-1529 (Streptomyces tubercidicus strain I-1529); assay: cell-based or functional assay
T5 sequence: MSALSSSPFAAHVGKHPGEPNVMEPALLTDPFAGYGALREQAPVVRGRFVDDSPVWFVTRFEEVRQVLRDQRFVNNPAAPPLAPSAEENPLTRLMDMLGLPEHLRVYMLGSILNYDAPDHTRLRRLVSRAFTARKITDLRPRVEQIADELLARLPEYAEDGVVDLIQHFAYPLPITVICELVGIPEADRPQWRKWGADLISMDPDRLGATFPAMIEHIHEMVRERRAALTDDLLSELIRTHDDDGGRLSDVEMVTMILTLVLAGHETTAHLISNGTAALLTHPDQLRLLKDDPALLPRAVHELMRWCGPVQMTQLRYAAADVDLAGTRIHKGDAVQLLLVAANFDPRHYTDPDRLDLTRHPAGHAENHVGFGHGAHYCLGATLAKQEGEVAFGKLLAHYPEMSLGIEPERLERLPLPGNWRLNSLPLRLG

conversion of avermectin to 4″-keto-avermectin, P. putida ATCC 17453 with the ema1/fd233/fre16 operon (whole cell assay; 23% without fre16) [1]: 44 % conversion
B1: ferredoxin reductase encoded by fre16 from strain I-1529 (enzyme)
chain: VVDAHQTFVIVGGGLAGAKAAETLRAEGFTGRVILICDERDHPYERPPLSKGFLLGKEERDSVFVHEPAWYAQAQIELHLGQPAVRLDPEAKTVRLGDGTLIAYDKLLLATGAEPRRLDIPGTGLAGVHHLRRLAHAERLRGVLASLGRDNGHLVIAGAGWIGLEVAAAARSYGAEVTVVEAAPTPLHGILGPELGGLFTELHRAHGVRFHFGARFTEIVGQDGMVLAVRTDDGEEHPAHDVLAAIGAAPRTALAEQAGLDLADPEAGGGVAVDATLRTSDPYIYAAGDVAAADHPLLDTRLRVEHWANALNGGPAAARAMLGQDISYDRVPYFFSDQYDVGMEYSGYAPPGSYAQVVCRGDVAKREFIAFWLGEDGRLLAGMNVNVWDVAETIQQLIRGGVRLEPGELADPEVPLTSLLP
biocatalysis activity, S. lividans ZX7 with ema1/fd233/fre operons in pTUA, pTBBKA and pEAA [2]: In each case there was no impact in S. lividans by any of the fre genes on biocatalysis activity

B2: ferredoxin reductase encoded by fre3 (protein)
chain: VVDAHQTFVIVGGGLAGAKAAETLRAEGFTGRVILICDERDHPYERPPLSKGFLLGKEERDSVFVHEPAWYAQAQIELHLGQPAVRLDPEGRTVRLGDGTLIAYDKLLLATGAEPRRLDIPGTGLAGVHHLRRLAHAERLRGVLASLGRDNGHLVIAGAGWIGLEVAAAARSYGAEVTVVEAAPTPLHGILGPELGGLFTDLHREHGVRFHFGARFTEIVGEGGMVLAVRTDDGEEHPAHDVLAAIGAAPRTALAEQAGLDLADPETGGGVAVDAALRTSDPYIYAAGDVAAADHPLLDTRLRVEHWANALNGGPAAARAMLGQDISYDRIPYFFSDQYDVGMEYSGYAPPGSYAQVVCRGDVAKREFIAFWLAADGRLLAGMNVNVWDVAESIQQLIRSGAPLEPGALADPQVPLAALLP
biocatalysis activity, S. lividans ZX7 with ema1/fd233/fre operons in pTUA, pTBBKA and pEAA [2]: In each case there was no impact in S. lividans by any of the fre genes on biocatalysis activity

B3: ferredoxin reductase encoded by fre12 (protein)
chain: MPAARRRLRPPHRSGDLPARPPGRAHPPRDRPGRHDLRPSRRGGGHRRMKSVAVIGASLAGLYAARSLRSQGFDGRLVIVGDECHGPYDRPPLSKDFLTGATDPGRLALADAEEIAELDAEWLLGTRATGLDTGGRTVLLDGGRSLTTDGVVLATGAAPRLLPGPVPAGVHTLRTLDDAQALRADLAPAPVRVVVIGGGFIGAEVASSCAALGHDVTVVEAAPLPLVPQLGHAMAEICAALHADHGVTLLTGTGVARLRSEGDGRRVTGVELTDGRLLPADVVVVGIGVRPRTAWLTDSGLPLDDGVLCDAGCVTPLPAVVAVGDVARVDGARAEHWTSATEQAAVAARNLLAGSTVATHRSLPYFWSDQYGVRIQFAGHRLPTDTPRVLEGSPDDRSFLACYERDGRTTAVLALNRPRPFMRLRRELARTALSATT
biocatalysis activity, S. lividans ZX7 with ema1/fd233/fre operons in pTUA, pTBBKA and pEAA [2]: In each case there was no impact in S. lividans by any of the fre genes on biocatalysis activity

B4: ferredoxin reductase encoded by fre14 (protein)
chain: MAQNTAFIIAGAGLAGAKAAETLRAEGFGGPVLLLGDERERPYERPPLSKGYLLGTSEREKAYVHPPQWYAEHDVDLRLGNAVTALDPAGHEVTLADGSRLGYAKLLLATGSTPRRLPVPGADLDGVHTLRYLADSDRLKDLFRSASRIVVIGGGWIGLETTAAARAAGVEVTVLESAPLPLLGVLGREVAQVFADLHTEHGVALRCDTQVTEITGTNGAVDGVRLADGTRIAADAVIVGVGITPNSETAAAAGLKVDNGVVVDERLCSSHPDIYAAGDVANAYHPLLGKHLRVEHWANALHQPKTAARAMLGGEAGYDRLPYFFTDQYDLGMEYTGHVEPGGYDRVVFRGDTGAREFIAFWLSGGRVLAGMNVNVWDVTDPIRALVASGRAVDPERLADADVPLADLVP
biocatalysis activity, S. lividans ZX7 with ema1/fd233/fre operons in pTUA, pTBBKA and pEAA [2]: In each case there was no impact in S. lividans by any of the fre genes on biocatalysis activity

% Conversion of Avermectin, 2 hour (S. lividans ZX7 + pEAA-ema1/fd233, whole cells) [3]: 8.26 % conversion | % Conversion of Avermectin, 2 hour (S. lividans ZX7 + pTBBKA-ema1/fd233, whole cells) [3]: 8.89 % conversion | % Conversion of Avermectin, 2 hour (S. lividans ZX7 + pTUA-ema1/fd233, whole cells) [3]: 23.3 % conversion | % Conversion of Avermectin, 16 hour (Pseudomonas putida + pRK-ema1/fd233, whole cells) [3]: 32 % conversion | % Conversion of Avermectin, 16 hour (S. lividans ZX7 + pEAA-ema1/fd233, whole cells) [3]: 10.7 % conversion | % Conversion of Avermectin, 16 hour (S. lividans ZX7 + pTBBKA-ema1/fd233, whole cells) [3]: 31 % conversion | % Conversion of Avermectin, 16 hour (S. lividans ZX7 + pTUA-ema1/fd233, whole cells) [3]: 61.2 % conversion | biocatalysis activity of pTUA-ema1/fd233 in S. lividans relative to pTUA-ema1 (fold) [3]: 1.5 to 3 fold | % Conversion of avermectin, 16 hrs (S. avermitilis MOS-0001 + pTBBKA-ema1A/fd233, whole cells) [4]: 28.5 % conversion | % Conversion of avermectin, 16 hrs (S. avermitilis MOS-0001 + pTUA-ema1A/fd233, whole cells) [4]: 24 % conversion | % Conversion of Avermectin, 2 hour (S. lividans ZX7 + pTUA-ema2/fd233, whole cells) [5]: 1.85 % conversion | % Conversion of Avermectin, 16 hour (S. lividans ZX7 + pTUA-ema2/fd233, whole cells) [5]: 6.4 % conversion
B5: ferredoxin encoded by fd233 from strain I-1529 (protein)
chain: MRITIDTDICIGAGQCALTAPGVFTQDDDGFSALLPGREDGAGDPLVREAARACPVQAITVTDD
